Source: article doi:10.1101/2022.02.08.479534, “FoxP3 can fold into two distinct dimerization states with divergent functional implications for T cell homeostasis”

Key:
NusA-FoxP2RBR-forkhead = target: T1, NusA-FoxP2RBR-forkhead (Mus musculus, UniProt P58463 447-588); assay: EMSA; equal to sFKHM; EMSA: 0.2 uM DNA, 20 mM Tris pH 7.5, 150 mM NaCl, 1.5 mM MgCl2, 2 mM DTT, 30 min at 4 C; anti-HA bead DNA pull-down: 20 min at room temperature; the EMSA IR-FKHM4g length is taken as 31 bp; settings: protein: recombinant; tags: His6-NusA; blunt
T1 sequence: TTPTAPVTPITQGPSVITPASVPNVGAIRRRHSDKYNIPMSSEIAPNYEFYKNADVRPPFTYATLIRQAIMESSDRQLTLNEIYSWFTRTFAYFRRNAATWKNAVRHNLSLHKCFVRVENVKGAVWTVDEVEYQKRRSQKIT

NusA-FoxP1RBR-forkhead = target: T2, NusA-FoxP1RBR-forkhead (Mus musculus, UniProt P58462 433-579); assay: as above; settings: protein: recombinant; tags: His6-NusA; blunt
T2 sequence: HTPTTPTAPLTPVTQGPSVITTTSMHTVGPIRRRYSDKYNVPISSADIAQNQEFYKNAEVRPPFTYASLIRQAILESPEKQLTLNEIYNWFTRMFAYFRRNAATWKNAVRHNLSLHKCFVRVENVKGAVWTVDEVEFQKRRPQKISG

FoxP3ZF-CC = target: T3, FoxP3ZF-CC (Mus musculus, UniProt Q99JB6 188-284); assay: EMSA; up to 4 uM; barely detectable; EMSA: 0.2 uM DNA, 20 mM Tris pH 7.5, 150 mM NaCl, 1.5 mM MgCl2, 2 mM DTT, 30 min at 4 C; anti-HA bead DNA pull-down: 20 min at room temperature; the EMSA IR-FKHM4g length is taken as 31 bp; settings: protein: recombinant; blunt
T3 sequence: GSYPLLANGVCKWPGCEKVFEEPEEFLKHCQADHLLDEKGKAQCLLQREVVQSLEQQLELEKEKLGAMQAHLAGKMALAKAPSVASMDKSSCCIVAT

B1: IR-FKHM4g (31bp) (dsDNA)
DNA 1: TTAGGAAAATTTGTTTACTCGAGTAAACAAA
DNA 2: TTTGTTTACTCGAGTAAACAAATTTTCCTAA
binding result (NusA-FoxP2RBR-forkhead): binds
binding result (NusA-FoxP1RBR-forkhead): binds
binding result (FoxP3ZF-CC): no binding
